Source: publication PMC7618200 (The Biochemical journal, 2025)

B1: MyD88 peptide 125AEKPLQVAAVDSSVPRT141 (17-mer) [human] / SPOP MATH domain (SPOP^MATH; residues 28-166) [human] (parent complex)
chain 1: AEKPLQVAAVDSSVPRT
chain 2: KVVKFSYMWTINNFSFCREEMGEVIKSSTFSSGANDKLKWCLRVNPKGLDEESKDYLSLYLLLVSCPKSEVRAKFKFSILNAKGEETKAMESQRAYRFVQGKDWGFKKFIRRDFLLDEANGLLPDDKLTLFCEVSVVQD

Variants of: B1
Assay: FP competition assay; competitor against fluorescently labeled Puc peptide

Row | Variant | IC50
1 | chain 1 AEKPLQVAAVAAAVPRT | ~2110 µM
